From US7446182 (University of Texas, dated 2008)
“And” between values parts separate entries of the source, which are not always exact repeats. Identical values can stand only once.

Legend:
[1] = biological target: T1, Bacillus anthracis protective antigen (PA), 83 kDa polypeptide (Bacillus anthracis, UniProt P13423 30-764)
[2] = biological target: T1, Bacillus anthracis protective antigen …; remark: listed apart in the source
[3] = biological target: T1, Bacillus anthracis protective antigen …; remark: listed apart in the source

T1 sequence (P13423 30-764 limits assumed): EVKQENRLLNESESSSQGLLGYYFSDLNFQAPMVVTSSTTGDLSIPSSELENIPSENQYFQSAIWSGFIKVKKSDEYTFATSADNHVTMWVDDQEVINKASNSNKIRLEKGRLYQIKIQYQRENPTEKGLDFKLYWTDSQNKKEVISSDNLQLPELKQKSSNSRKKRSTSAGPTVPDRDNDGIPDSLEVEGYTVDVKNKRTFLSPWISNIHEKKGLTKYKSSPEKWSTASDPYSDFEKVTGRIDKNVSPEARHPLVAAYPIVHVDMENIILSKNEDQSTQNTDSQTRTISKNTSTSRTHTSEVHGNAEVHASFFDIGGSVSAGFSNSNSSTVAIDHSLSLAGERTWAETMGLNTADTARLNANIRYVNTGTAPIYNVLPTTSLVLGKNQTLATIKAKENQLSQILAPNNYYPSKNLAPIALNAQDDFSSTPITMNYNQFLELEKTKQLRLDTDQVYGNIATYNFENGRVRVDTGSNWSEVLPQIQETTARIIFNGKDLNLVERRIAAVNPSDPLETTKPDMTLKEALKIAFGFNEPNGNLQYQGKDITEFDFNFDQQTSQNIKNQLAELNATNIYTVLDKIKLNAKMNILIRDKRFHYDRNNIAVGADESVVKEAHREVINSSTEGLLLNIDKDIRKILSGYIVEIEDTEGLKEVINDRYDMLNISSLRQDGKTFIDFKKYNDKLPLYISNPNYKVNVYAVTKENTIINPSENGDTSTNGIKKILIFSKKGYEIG

B1: A2E scFv (scFv)
scFv: DIQMTQTTSSLSASLGDRVTISCRASQDIRNYLNWYQQKPDGTVKLLIYYTSRLQPGVPSRFSGSGSGTDYSLTISNQEQEDIGTYFCQQGNTLPWTGFFFTKLEIKRGGGGSGGGGSGGGGSGGGGSEVQLQQSGPELVKPGASVKISCKIDSGYAFSSSWMNWVKQRFGQGLEWIGRIYPGDGDTNYNGKFKGKATLTADKSSSTAYMQLSSLTSVDSAVYFCARSGLLRYAMDYWGQGTSVTVSS
For B1, the “EC50 (read off the curve)” value [1] was ~0.02 µg/mL and ~0.05 µg/mL, the “fold higher affinity than the 14B7 scFv” value [2] was 3 fold and the “fold lower equilibrium dissociation constant than 14B7” value [2] was 3 fold. For the same binder, the Kd [3] was 4 nM, the koff [3] was 0.001 s⁻¹ and the kon [3] was 300000 M⁻¹ s⁻¹.
